Legend:
MBP-Rep78 [1] = target: T1, MBP-Rep78 (Adeno-associated virus type 2 (AAV-2)?, UniProt Q89268 1-621); test: EMSA; 10 mM Mg2+; 25 mM HEPES-KOH pH 7.8, 10 mM MgCl2, 40 mM NaCl, 1 mM DTT, 2% glycerol, 12.5 ug/ml BSA, 0.01% Nonidet P40, 5 ug/ml salmon sperm DNA; 0.015 pmol probe; 20 min at 20 C; conditions: protein: recombinant; MBP fusion; label: 32P 5' end label; blunt
T1 sequence: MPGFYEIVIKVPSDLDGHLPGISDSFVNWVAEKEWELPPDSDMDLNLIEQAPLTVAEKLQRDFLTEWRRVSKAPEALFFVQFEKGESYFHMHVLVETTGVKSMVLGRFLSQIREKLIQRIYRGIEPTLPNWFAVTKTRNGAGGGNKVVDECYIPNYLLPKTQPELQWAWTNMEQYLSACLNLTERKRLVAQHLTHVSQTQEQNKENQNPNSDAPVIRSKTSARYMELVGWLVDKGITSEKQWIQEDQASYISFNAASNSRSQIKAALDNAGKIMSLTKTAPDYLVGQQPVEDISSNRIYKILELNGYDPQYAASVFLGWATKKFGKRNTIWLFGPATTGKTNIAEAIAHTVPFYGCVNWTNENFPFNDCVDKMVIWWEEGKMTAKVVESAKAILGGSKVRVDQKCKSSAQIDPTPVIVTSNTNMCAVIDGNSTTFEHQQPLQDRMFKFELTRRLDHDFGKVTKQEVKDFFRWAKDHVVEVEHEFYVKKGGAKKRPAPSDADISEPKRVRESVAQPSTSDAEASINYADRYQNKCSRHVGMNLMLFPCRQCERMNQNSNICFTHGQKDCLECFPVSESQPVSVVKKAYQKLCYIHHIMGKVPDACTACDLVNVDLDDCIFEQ

MBP-Rep78 [2] = target: T1, MBP-Rep78; test: EMSA; among the highest affinities; 10 mM Mg2+; 25 mM HEPES-KOH pH 7.8, 10 mM MgCl2, 40 mM NaCl, 1 mM DTT, 2% glycerol, 12.5 ug/ml BSA, 0.01% Nonidet P40, 5 ug/ml salmon sperm DNA; 0.015 pmol probe; 20 min at 20 C; conditions: protein: recombinant; MBP fusion; label: 32P 5' end label; blunt

B1: Chr. 3p24.3 (AAVS3) (dsDNA)
DNA 1: GTGAGGAGTGAGTGAGTGAGCGAGCGCACATTCATTCCCCTTGGGAAGC
DNA 2: GCTTCCCAAGGGGAATGAATGTGCGCTCGCTCACTCACTCACTCCTCAC
MBP-Rep78 [1]
  binding signal: 2 fold of AAVS1 affinity

B2: AAV p5 (nt 245-292) (dsDNA)
DNA 1: TCACGCTGGGTATTTAAGCCCGAGTGAGCACGCAGGGTCTCCATTTTG
DNA 2: CAAAATGGAGACCCTGCGTGCTCACTCGGGCTTAAATACCCAGCGTGA
MBP-Rep78 [2]
  binding result: binds

B3: AAV-ITR (A-stem, nt 85-133) (dsDNA)
DNA 1: GCCTCAGTGAGCGAGCGAGCGCGCAGAGAGGGAGTGGCCAACTCCATCA
DNA 2: TGATGGAGTTGGCCACTCCCTCTCTGCGCGCTCGCTCGCTCACTGAGGC
MBP-Rep78 [2]
  binding result: binds

— publication PMC2900306, “Integration Preferences of Wildtype AAV-2 for Consensus Rep-Binding Sites at Numerous Loci in the Human Genome”
